In patent US7517959B2, “SOCS3 proteins” (Walter and Eliza Hall Institute of Medical Research, priority 2005, dated 2009):
Entries after “also recorded” stand apart in the source; their conditions may differ.

Columns and labels:
SOCS3 = SOCS3 (Mus musculus, UniProt O35718); details: result in words; cited from earlier work
[1] = Protocol: (§1) Pelleted bacterial cells were resuspended in PBS and then lysed by homogenisation. The lysate was centrifuged at 20,000 g and the pelleted inclusion bodies solubilised using 6M GdnHCl. The protein was then purified using Ni-NTA resin (Qiagen) by binding at pH 8.0, washing at pH 6.3 and eluting at pH 4.5, all in 6M GdnHCl. The eluted protein was diluted to 0.1 mg/mL and a final GdnHCl concentration of 4 M and then refolded by extensive dialysis against 25 mM sodium phosphate, 50 mM sodium chloride, 5 mM 2-mercaptoethanol at pH 6.7.
All constructs contained the SH2 domain, as defined by sequence homology (Okazaki et al., 2002), but included differing lengths of sequence outside this region.
The six mutants (A50D, G53R, L58E, A62E, A65E, G99D) were all cloned and expressed in E. coli as part of a 22-185 construct.

293T cells = assay: Pulse chase half-life experiments in 293T cells; type: cell-based; details: for effect of proteasome inhibitor MG132 on half-life: 10 μM MG-132, over eight hours; for labelled protein remaining: after 8 hr; for intracellular stability / turnover: pulse chase, result in words
From the text: FIG. 9. Removing the PEST motif improves the intracellular half-life of SOCS3 and affects its degradation mechanism. • (A) Duplicate pulse chase experiments in 293T cells performed after transfection of (upper panel) wild-type (1-225) or ΔPEST (Δ129-163) SOCS3 DNA and (lower panel) ΔNC-SOCS3 (22-185) or ΔNC-Δ129-163 (22-185 ΔPEST) SOCS3 DNA. The amount of labelled protein remaining is shown as a perceintage of initial levels and plotted as a semi-log graph. […] Duplicate experiments are shown in each panel • (B) Removing the PEST motif alters the intracellular degradation pathway of SOCS3. Pulse chase experiments were performed on 293T cells transfected with wild-type SOCS3 (black) or ΔPEST SOCS3 (grey) and incubated in the presence (hashed bars) and absence (solid bars) of MG-132, a proteasome inhibitor. Experiments were performed in duplicate according to the protocol in (A) but with the addition of 10 μM MG-132 and the protein levels monitored over eight hours.
293T cells (5×10^5 cells/well) were transfected with 1.5 μg of the appropriate SOCS3 expression construct as described above. 48 h after transfection cells were washed twice in PBS and incubated for 1 h in Met/Cys-free DME (Gibco-BRL). Cells were then incubated for 30 min in DME containing 0.15 mCi/ml [^35S]Met/Cys (Perkin-Elmer) followed by DME+10% Foetal calf serum (Sigma)+2 mM Cys+2 mM Met for various times, upon which cells were lysed in KALB lysis buffer (1 mM EDTA, 150 mM NaCl, 50 mM Tris-Cl, 1% Triton X-100, pH 7.5) and the amount of [^35S]-labelled SOCS3 was determined by immunoprecipitation using anti-Flag tag M2 beads (Sigma). Detection and quantification was carried out using a FujiFilm FLA-3000 phosphoimager and associated software.
Intracellular levels of SOCS3 are strongly regulated by proteolysis. Two regions of the protein have been implicated previously in regulating proteolysis, Lys6 in the N-terminal domain and the C-terminal SOCS box (Chen et al., 2002; Kamura et al., 1998; Sasaki et al., 2003). As PEST motifs are known to be signals for protein degradation in vivo (Rogers et al., 1986), we measured the half-life of SOCS3 proteins that lacked the PEST motif, as well as constructs lacking the SOCS box and the N-terminal region. […] As the SOCS box and the N-terminal domains also affect SOCS3 turnover we further examined the effect of deleting these regions. The decrease in SOCS3 degradation upon removing the PEST motif from either the full-length protein (upper panel) or from SOCS322-185 (which lacks both the N-terminal domain and SOCS box, lower panel) was significant.
As PEST motifs have been associated with proteasome-mediated degradation, we investigated whether proteasome inhibitors would have an effect on the half-life of SOCS3 in 293T cells. […] After 8 hr in the presence of MG132 approximately 65% of ΔPEST SOCS3 remained, compared with ca. 45% in its absence. […] Thus it appears that, in 293T cells, the proteasomal pathway is an important route for ΔPEST SOCS3 degradation but that wild-type SOCS3, which contains the PEST motif, is efficiently degraded via another mechanism.

[2] = depending on the cell type; cited from earlier work
[3] = molecular target: tyrosine phosphorylated peptide from gp130 (Mus musculus, UniProt Q00560, Q756E); assay: Binding studies and isothermal titration calorimetry (ITC) with gp130 peptide; details: for ΔH: FIG. 4 titration, fit to single site binding isotherm
Protocol: as §1

[4] = tested on: LIF-induced Stat3 activity; assay: Stat3-responsive luciferase assay in 293T cells; type: cell-based; details: 100 or 300 ng cDNA, 10 ng/ml LIF overnight
From the text: FIG. 8. […] Backbone amide chemical shift differences between residues in wild-type SOCS3 and ΔPEST SOCS3, which has residues 129-163 replaced by […] (SEQ ID NO:10), are plotted against residue number; amide proton and nitrogen chemical shift differences were averaged according to Δδav, a weighted average of the ^15N and ^1HN chemical shifts as follows: Δδav={0.5[Δδ(^1HN)^2+(0.2Δδ(15N))^2]}^1/2 (Pellecchia et al., 1999). The position of the PEST sequence is marked by a double asterisk. • (B) SOCS3 PEST deletion mutants are able to inhibit STAT activation. 293T cells were transiently transfected with 100 or 300 ng cDNA expressing various Flag-tagged SOCS-3 proteins in the presence of the Stat3-responsive reporter gene. […] Upper panel: Luciferase activity from triplicate samples was determined and normalized against Renilla luciferase activity. Lower panel: Lysates were analysed by Western blot with anti-Flag antibody. […]
Firefly and Renilla luciferase activities were quantified using substrate reagents from the Luciferase Assay Dual-Reporter kit (Promega, Madison Wis.) and an automated LUMIstar Galaxy plate reader (BMG Technologies, Offenburg, Germany). SOCS3 protein expression was analysed by Western blot with polyclonal rat anti-Flag antibody (Drs. D. Huang & L. O'Reilly, The Walter and Eliza Hall Institute of Medical Research, Melbourne, Australia) as described (Nicholson et al., 1999). […]

Chain of SOCS3 (O35718 whole entry): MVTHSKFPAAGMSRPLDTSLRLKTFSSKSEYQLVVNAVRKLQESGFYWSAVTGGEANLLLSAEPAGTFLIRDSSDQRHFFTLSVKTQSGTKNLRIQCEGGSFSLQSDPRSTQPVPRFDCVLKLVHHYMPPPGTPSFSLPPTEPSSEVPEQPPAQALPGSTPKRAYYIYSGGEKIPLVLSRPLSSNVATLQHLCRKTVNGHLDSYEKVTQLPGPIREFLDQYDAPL

ΔH [3] | Molecule | solubility (in words) [1] | effect of proteasome inhibitor MG132 on half-life (293T cells) | intracellular stability / turnover (293T cells) | further results
– | STASTVEpYSTVVHSG [phosphotyrosine peptide from gp130] | – | – | – | binding to mouse SOCS3 (SOCS3): bind with high affinity
– | wild-type SOCS3: Wild-type (1-225) murine SOCS3, Flag-tagged in the cell assays; SEQ ID NO:1 | too low for structure determination | did not affect the half-life; also recorded: no effect on the half-life | – | labelled protein remaining (293T cells; MG132 state not specified (no effect on wild-type)): 25%; half-life [2]: under 5 minutes to over 8 hours
-6.4 kcal/mol | SOCS3(22-185)(Δ129-163): 22-185 construct with Pro129-Arg163 replaced by an eight residue (Gly-Ser)x4 linker; SEQ ID NO:3 (protein, listed as Mus musculus) LKTFSSKSEYQLVVNAVRKLQESGFYWSAVTGGEANLLLSAEPAGTFLIRDSSDQRHFFTLSVKTQSGTKNLRIQCEGGSFSLQSDPRSTQPVPRFDCVLKLVHHYMGSGSGSGSAYYIYSGGEKIPLVLSRPLSSN | – | – | improved its in vivo stability | binding to the gp130 peptide ([3]; result in words): binds to the gp130 peptide
– | ΔPEST SOCS3: Full-length SOCS3 lacking the PEST sequence (Δ129-163), Flag-tagged (protein) LKTFSSKSEYQLVVNAVRKLQESGFYWSAVTGGEANLLLSAEPAGTFLIRDSSDQRHFFTLSVKTQSGTKNLRIQCEGGSFSLQSDPRSTQPVPRFDCVLKLVHHYMGSGSGSGSAYYIYSGGEKIPLVLSRPLSSN | – | dramatically increased the half-life; also recorded: significantly increased the half-life | improved its in vivo stability | ability to inhibit LIF-induced Stat3 activity [4]: did not alter the ability of SOCS3 to inhibit LIF-induced Stat3 activity; labelled protein remaining (293T cells; in the absence of MG132): ca. 45%; labelled protein remaining (293T cells; in the presence of MG132 (10 μM)): approximately 65%
– | SOCS3(22-225): Mouse SOCS3 residues 22-225 containing KIR, extended SH2 domain and SOCS box (protein) LKTFSSKSEYQLVVNAVRKLQESGFYWSAVTGGEANLLLSAEPAGTFLIRDSSDQRHFFTLSVKTQSGTKNLRIQCEGGSFSLQSDPRSTQPVPRFDCVLKLVHHYMPPPGTPSFSLPPTEPSSEVPEQPPAQALPGSTPKRAYYIYSGGEKIPLVLSRPLSSNVATLQHLCRKTVNGHLDSYEKVTQLPGPIREFLDQYDAPL | too poorly soluble | – | – | solubility in NaCl/Pi [1]: < 1000 µg/mL
-6.2 kcal/mol | SOCS3(22-185): Mouse SOCS3 residues 22-185 with KIR and extended SH2 domain, lacking the C-terminal SOCS box (protein) LKTFSSKSEYQLVVNAVRKLQESGFYWSAVTGGEANLLLSAEPAGTFLIRDSSDQRHFFTLSVKTQSGTKNLRIQCEGGSFSLQSDPRSTQPVPRFDCVLKLVHHYMPPPGTPSFSLPPTEPSSEVPEQPPAQALPGSTPKRAYYIYSGGEKIPLVLSRPLSSN | highest solubility | – | – | soluble to [1]: ≈ 0.5 mM
